These results are taken from PMC3580588, “Fully recombinant IgG2a Fc multimers (stradomers) effectively treat collagen-induced arthritis and prevent idiopathic thrombocytopenic purpura in mice” (Arthritis Research & Therapy, 2012).

Read-outs that look alike come from different tables or passages of the source.

B4: recombinant murine IgG2a Fc (domain or fragment, mouse, UniProt P01863 98-330, looked up)
chain: EPRGPTIKPCPPCKCPAPNLLGGPSVFIFPPKIKDVLMISLSPIVTCVVVDVSEDDPDVQISWFVNNVEVHTAQTQTHREDYNSTLRVVSALPIQHQDWMSGKEFKCKVNNKDLPAPIERTISKPKGSVRAPQVYVLPPPEEEMTKKQVTLTCMVTDFMPEDIYVEWTNNGKTELNYKNTEPVLDSDGSYFMYSKLRVEKKNWVERNSYSCSVVHEGLHNHHTTKSFSRTPGK
notes: murine IgG2a Fc: hinge, CH2 and CH3 domains, no Fab region; Runs as a homodimer (45 kDa) on non-reducing SDS-PAGE, with a weaker band at about 90 kDa; source: recombinant, from a cDNA construct; host and purification are stated for the stradomers only (HEK293, protein A-derived column)

In series [1] the target is T1, recombinant mouse FcγRI (mouse, UniProt P26151 25-297).
T1 construct: mouse Fc gamma receptor I, recombinant; source: bought: R&D Systems
T1 sequence (looked up): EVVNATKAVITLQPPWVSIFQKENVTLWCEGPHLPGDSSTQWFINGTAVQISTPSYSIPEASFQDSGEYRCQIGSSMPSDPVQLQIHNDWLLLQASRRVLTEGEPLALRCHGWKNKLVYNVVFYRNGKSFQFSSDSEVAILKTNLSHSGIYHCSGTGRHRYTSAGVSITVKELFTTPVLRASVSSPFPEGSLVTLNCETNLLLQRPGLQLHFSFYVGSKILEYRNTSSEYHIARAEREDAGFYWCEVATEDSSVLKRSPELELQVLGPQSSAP
The series is described as follows: SPR; Biacore 3000 or T100; receptors immobilised by amine coupling on CM4 (FcγRs) or CM5 (SIGN-R1) chips; samples 1,000 nM to 0.5 nM in HBS-EP at 20 μl/min; 1:1 Langmuir kinetic model; molecular mass of 50 kDa assigned to homodimer isolates and 150 kDa to all other preparations.

The target in series [2] is recombinant mouse FcγRIII (mouse) (UniProt P08508). Described as above.
Series [3] has as its target recombinant mouse FcγRIV (mouse). The series is described as above.
For series [4], the target named is recombinant mouse FcγRIIb (mouse) (UniProt P08101). The description is as above.
Series [5] concerns the target recombinant mouse SIGN-R1 (mouse) (UniProt Q8CJ91). The series is described as above.
The target of series [6] is recombinant mouse FcγRI (mouse) (UniProt P26151). The series is described as above.
In series [7] the target is B4. The description is as above. The settings on record: both partners purified.
Series [8] concerns the target T2, recombinant mouse SIGN-R1 (mouse), Q8CJ91.
T2 chain: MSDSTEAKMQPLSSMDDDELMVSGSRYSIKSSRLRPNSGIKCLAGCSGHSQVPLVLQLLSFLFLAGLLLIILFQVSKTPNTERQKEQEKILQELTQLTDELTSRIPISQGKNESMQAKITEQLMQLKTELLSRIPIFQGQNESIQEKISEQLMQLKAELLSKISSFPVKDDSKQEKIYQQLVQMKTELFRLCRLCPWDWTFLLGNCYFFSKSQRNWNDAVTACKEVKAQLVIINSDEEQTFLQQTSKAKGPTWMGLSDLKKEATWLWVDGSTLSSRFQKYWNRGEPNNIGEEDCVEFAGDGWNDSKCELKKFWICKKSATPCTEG
Described as above.

Series [9] concerns the molecule itself. The series is described as follows: SDS-PAGE, nonreduced against reduced; 0.5 to 2 μg of purified protein on 4-12% Bis-Tris gels, Coomassie stain; multimers present under denaturing but not reducing conditions (covalently linked).

Turning to “2A-2HC: stradomer with hinge of human IgG2 linked to the carboxy terminus of murine IgG2a Fc (unfractionated) (Fc fusion)”, the Kd turned out to be 9.12 nM in series [1], 4.2 nM in series [2], 3.03 nM in [3] and 3.3 nM in series [4].
For “2A-2HN: stradomer with hinge of human IgG2 linked to the amino terminus of murine IgG2a Fc (Fc fusion)”, the Kd amounted to 16.3 nM in [1]; 4.4 nM in [2]; 7.6 nM in series [3]; 3.4 nM in series [4]; 109 nM in series [5].
Take “2A-ILZC: stradomer with the isoleucine zipper linked to the carboxy terminus of murine IgG2a Fc (Fc fusion)”: the Kd in series [2] amounted to 151 nM; in series [3], 63.6 nM; in [4], 455 nM; in [6] it was 63.4 nM.
In the same order, the values of “2A-ILZN: stradomer with the isoleucine zipper linked to the amino terminus of murine IgG2a Fc (Fc fusion)” are 2.3 nM, 0.46 nM, 3.8 nM and 6.71 nM.

B1: recombinant mouse FcγRIV (receptor, UniProt A0A0B4J1G0 21-203, looked up)
chain: GLQKAVVNLDPKWVRVLEEDSVTLRCQGTFSPEDNSIKWFHNESLIPHQDANYVIQSARVKDSGMYRCQTALSTISDPVQLEVHMGWLLLQTTKWLFQEGDPIHLRCHSWQNRPVRKVTYLQNGKGKKYFHENSELLIPKATHNDSGSYFCRGLIGHNNKSSASFRISLGDPGSPSMFPPWHQ
notes: mouse Fc gamma receptor IV, recombinant; source: bought: R&D Systems
On to B1, for which the Kd in series [7] turned out to be 27.8 nM.

B2: 2A-ILZN: stradomer with the isoleucine zipper linked to the amino terminus of murine IgG2a Fc (Fc fusion)
chain: EPRGPTIKPCPPCKCPAPNLLGGPSVFIFPPKIKDVLMISLSPIVTCVVVDVSEDDPDVQISWFVNNVEVHTAQTQTHREDYNSTLRVVSALPIQHQDWMSGKEFKCKVNNKDLPAPIERTISKPKGSVRAPQVYVLPPPEEEMTKKQVTLTCMVTDFMPEDIYVEWTNNGKTELNYKNTEPVLDSDGSYFMYSKLRVEKKNWVERNSYSCSVVHEGLHNHHTTKSFSRTPGK
modifications: not checked
Turning to B2, the Kd in series [8] turned out to be 134 nM.

B3: 2A-ILZC: stradomer with the isoleucine zipper linked to the carboxy terminus of murine IgG2a Fc (Fc fusion)
chain: EPRGPTIKPCPPCKCPAPNLLGGPSVFIFPPKIKDVLMISLSPIVTCVVVDVSEDDPDVQISWFVNNVEVHTAQTQTHREDYNSTLRVVSALPIQHQDWMSGKEFKCKVNNKDLPAPIERTISKPKGSVRAPQVYVLPPPEEEMTKKQVTLTCMVTDFMPEDIYVEWTNNGKTELNYKNTEPVLDSDGSYFMYSKLRVEKKNWVERNSYSCSVVHEGLHNHHTTKSFSRTPGK
modifications: not checked
Consider B3, for which, in series [8], the Kd came to 43.9 nM.
Take B4: the Kd in series [1] (both partners purified) turned out to be 17.4 nM. The “stoichiometry N” value in series [9] is 2.

B5: recombinant mouse FcγRIII (receptor, UniProt P08508 31-215, looked up)
chain: ALPKAVVKLDPPWIQVLKEDMVTLMCEGTHNPGNSSTQWFHNGRSIRSQVQASYTFKATVNDSGEYRCQMEQTRLSDPVDLGVISDWLLLQTPQRVFLEGETITLRCHSWRNKLLNRISFFHNEKSVRYHHYKSNFSIPKANHSHSGDYYCKGSLGSTQHQSKPVTITVQDPATTSSISLVWYHT
notes: mouse Fc gamma receptor III, recombinant; His tag and catalogue number are told for the biolayer interferometry only; also called His-tagged mouse FcγRIII; source: bought: R&D Systems
Regarding B5, in [7], the Kd stood at 248 nM.

B6: recombinant mouse FcγRIIb (receptor, UniProt P08101 30-210, looked up)
chain: THDLPKAVVKLEPPWIQVLKEDTVTLTCEGTHNPGNSSTQWFHNGRSIRSQVQASYTFKATVNDSGEYRCQMEQTRLSDPVDLGVISDWLLLQTPQLVFLEGETITLRCHSWRNKLLNRISFFHNEKSVRYHHYSSNFSIPKANHSHSGDYYCKGSLGRTLHQSKPVTITVQGPKSSRSLP
notes: mouse Fc gamma receptor IIb, recombinant; His tag and catalogue number are told for the biolayer interferometry only; also called His-tagged mouse FcγRIIb; source: bought: R&D Systems
Regarding B6, the Kd in series [7] turned out to be 289 nM.
